Results from publication PMC7696055 (Pharmaceutics, 2020).

How the values were obtained:
A431/CCKBR tumors = details: mouse, in vivo, iv
Source text: The image reconstruction and processing was accomplished by using VivoQuant 3.0 Patch1 software.

[1] = cited from earlier work
Source text: The radiolabeled PP-F11N is a small molecular weight peptide (2.032 kDa), which can be reabsorbed in the proximal tu ...

Row | Compound | location of radioactive signals in SPECT/CT (A431/CCKBR tumors) | radiation dose received by stomach (median) ([1]; MTC patients, highest organ dose) [Gy/GBq] | kidney radiation dose ([1]; six MTC patients)
1 | CCCC[C@H](NC(=O)[C@H](Cc1c[nH]c2ccccc12)NC(=O)CNC(=O)[C@H](Cc1ccc(O)cc1)NC(=O)[C@H](C)NC(=O)[C@@H](CCC(=O)O)NC(=O)[C@@H](CCC(=O)O)NC(=O)[C@@H](CCC(=O)O)NC(=O)[C@@H](CCC(=O)O)NC(=O)[C@@H](CCC(=O)O)NC(=O)[C@@H](CCC(=O)O)NC(=O)CN1CCN(CC(=O)O)CCN(CC(=O)O)CCN(CC(=O)O)CC1)C(=O)N[C@@H](CC(=O)O)C(=O)N[C@@H](Cc1ccccc1)C(N)=O [[^111In]In-PP-F11N, metal not drawn] | only detected in the excretion organs including kidneys and bladder | – | –
2 | CCCC[C@H](NC(=O)[C@H](Cc1c[nH]c2ccccc12)NC(=O)CNC(=O)[C@H](Cc1ccc(O)cc1)NC(=O)[C@H](C)NC(=O)[C@@H](CCC(=O)O)NC(=O)[C@@H](CCC(=O)O)NC(=O)[C@@H](CCC(=O)O)NC(=O)[C@@H](CCC(=O)O)NC(=O)[C@@H](CCC(=O)O)NC(=O)[C@@H](CCC(=O)O)NC(=O)CN1CCN(CC(=O)O)CCN(CC(=O)O)CCN(CC(=O)O)CC1)C(=O)N[C@@H](CC(=O)O)C(=O)N[C@@H](Cc1ccccc1)C(N)=O [[^177Lu]Lu-PP-F11N, metal not drawn] | – | 0.42 | relatively low kidney radiation dose
